Data: patent US8440430, “Modified dicer polypeptide and methods of use thereof” (The Regents of the University of California)

Target: ΔdsRBD human Dicer (Homo sapiens, UniProt Q9UPY3 SEQ:1-1922, del1844-1922)
Test: filter; within three-fold of full-length; dsRBD deletion did not significantly affect binding; 5 mM EDTA
Conditions: tags: N-terminal His6 removed by site-specific protease, baculovirus/Sf9
Experimental: A serial dilution of proteins were incubated in a buffer containing 20 mM Tris-Cl (pH 7.5), 25 mM NaCl, 5 mM EDTA, 1 mM dithiothreitol (DTT), 1% glycerol and ~0.5-1 nM (1500 c.p.m.) of ^32P-labeled duplex RNA substrate (one strand was labeled) at room temperature for 60 min […] After this incubation, 25 µl of each reaction were used for dot-blotting, which was conducted in a dot-blot apparatus equipped with 3 membranes of Tuffryn, Protran and Nytran (from top to bottom). After dried, the bound (on Protran) or free (on Nytran) RNAs were detected and quantified with Phosphoimager (GE Healthcare). Percentage of bound RNAs was calculated by 100 multiplied by the ratio of radioactivity (volumes) detected on the Protran membrane over the total input volumes (radioactivity). The bound RNAs (%) (Y-axle) were plotted against protein concentrations (X-axle). K_d was determined by global fitting to the equation of kobsd = (kmax ×[Dicer])(K_{1/2} + [Dicer])^-1, here $kobsd$ is the observed rate constant at a particular protein concentration, $kmax$ is the maximal rate constant with saturating protein, and K_{1/2} (or K_d) is the protein concentration that provides half the maximal rate. Curve fitting was conducted with KleidaGraph (Synery Software).
RNA. […] These values are similar to those measured previously (Provost et al, 2002; Vermeulen et al, 2005).

Sequence of ΔdsRBD human Dicer (Q9UPY3 1-1843, stated change not applied): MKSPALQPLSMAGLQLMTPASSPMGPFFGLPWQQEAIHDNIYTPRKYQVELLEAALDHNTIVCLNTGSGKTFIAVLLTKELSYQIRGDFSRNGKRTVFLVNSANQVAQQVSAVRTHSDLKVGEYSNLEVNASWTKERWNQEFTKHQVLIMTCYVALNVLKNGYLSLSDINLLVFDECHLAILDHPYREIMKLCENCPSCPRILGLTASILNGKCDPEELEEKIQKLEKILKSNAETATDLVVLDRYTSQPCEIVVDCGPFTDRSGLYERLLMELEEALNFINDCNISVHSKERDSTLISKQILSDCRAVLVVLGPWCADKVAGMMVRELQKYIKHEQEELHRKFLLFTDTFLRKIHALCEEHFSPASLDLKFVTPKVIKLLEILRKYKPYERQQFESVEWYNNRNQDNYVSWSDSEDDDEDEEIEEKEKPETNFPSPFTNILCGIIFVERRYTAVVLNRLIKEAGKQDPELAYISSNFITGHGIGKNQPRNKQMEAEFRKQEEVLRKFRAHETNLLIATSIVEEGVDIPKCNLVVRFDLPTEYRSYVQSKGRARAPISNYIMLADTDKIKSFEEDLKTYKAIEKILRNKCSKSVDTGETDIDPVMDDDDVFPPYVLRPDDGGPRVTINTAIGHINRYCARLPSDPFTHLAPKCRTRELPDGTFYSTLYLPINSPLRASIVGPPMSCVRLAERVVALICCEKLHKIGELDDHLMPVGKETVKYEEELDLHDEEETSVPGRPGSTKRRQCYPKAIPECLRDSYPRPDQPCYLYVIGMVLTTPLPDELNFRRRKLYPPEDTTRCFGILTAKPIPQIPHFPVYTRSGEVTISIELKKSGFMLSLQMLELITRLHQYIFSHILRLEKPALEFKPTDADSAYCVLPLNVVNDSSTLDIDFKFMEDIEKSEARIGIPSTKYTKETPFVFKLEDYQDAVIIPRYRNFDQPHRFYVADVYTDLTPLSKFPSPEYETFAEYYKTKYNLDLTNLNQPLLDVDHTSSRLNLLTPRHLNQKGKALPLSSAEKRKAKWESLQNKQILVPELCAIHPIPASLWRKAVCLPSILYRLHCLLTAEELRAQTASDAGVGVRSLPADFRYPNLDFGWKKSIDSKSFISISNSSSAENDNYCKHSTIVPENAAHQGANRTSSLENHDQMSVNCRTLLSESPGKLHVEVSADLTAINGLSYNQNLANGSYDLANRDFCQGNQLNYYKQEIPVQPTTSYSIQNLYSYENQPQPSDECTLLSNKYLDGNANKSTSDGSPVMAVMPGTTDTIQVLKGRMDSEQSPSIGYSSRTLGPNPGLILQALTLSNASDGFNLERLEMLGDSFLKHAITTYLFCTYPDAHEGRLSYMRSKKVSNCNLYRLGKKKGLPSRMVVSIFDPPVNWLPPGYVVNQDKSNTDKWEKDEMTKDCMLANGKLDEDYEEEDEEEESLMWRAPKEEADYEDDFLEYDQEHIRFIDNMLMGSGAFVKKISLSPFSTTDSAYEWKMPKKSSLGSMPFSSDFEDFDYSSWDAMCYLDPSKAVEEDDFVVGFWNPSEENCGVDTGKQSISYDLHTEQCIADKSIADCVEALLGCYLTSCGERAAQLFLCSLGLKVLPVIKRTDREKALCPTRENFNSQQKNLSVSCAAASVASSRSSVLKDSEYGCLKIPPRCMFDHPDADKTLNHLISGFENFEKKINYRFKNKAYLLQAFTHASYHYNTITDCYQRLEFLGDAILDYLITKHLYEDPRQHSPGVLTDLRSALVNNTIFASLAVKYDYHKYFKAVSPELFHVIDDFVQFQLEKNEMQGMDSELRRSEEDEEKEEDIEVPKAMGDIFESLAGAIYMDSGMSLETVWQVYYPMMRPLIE

| Binder | Kd relative to full-length Dicer (label: 5'-32P on one strand, perfect duplex with 2-nt 3' overhangs on both ends) | Kd relative to full-length Dicer (label: 5'-32P, hairpin) |
| --- | --- | --- |
| 37ab duplex RNA (dsRNA) RNA 1: UGAGGUAGUAGGUUGUAUAGUUUGAAAGUUCACGAUU RNA 2: UCGUGAACUUUCAAACUAUACAACCUACUACCUCAUU | ≤ 3 fold of full-length Kd (75 nM) | – |
| pre-hlet-7 hairpin RNA (ssRNA) RNA: UGAGGUAGUAGGUUGUAUAGUUUUAGGGUCACACCCACCACUGGGAGAUAACUAUACAAUCUACUGUCUUACC | – | ≤ 3 fold of full-length Kd (30 nM) |
